The values that follow come from patent US20220387557A1 (OXFORD UNIVERSITY INNOVATION, published 2022).

Positions count from the first letter of the chain named.

Experiment [1] addresses T1, Fc tagged human TNFR1 (Sino Biological) (human, UniProt P19438 22-211, limits assumed).
T1 construct: Bought reagent; also called hTNFR1; hTNFR1-Fc; not shown: Fc tag of the bought protein
T1 sequence (looked up): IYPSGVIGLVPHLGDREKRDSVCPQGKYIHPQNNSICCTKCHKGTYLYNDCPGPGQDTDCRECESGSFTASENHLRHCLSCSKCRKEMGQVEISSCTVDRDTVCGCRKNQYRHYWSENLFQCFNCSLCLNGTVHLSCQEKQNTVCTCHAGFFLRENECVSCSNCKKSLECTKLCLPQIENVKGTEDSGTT
In words: SPR, Biacore T200 single cycle kinetics, receptor-Fc captured on Protein A chip, TNF 1.67-15 nM. How it is done:
(§1) Single cycle kinetic analysis was performed using a Biacore T200 (serial no. 1909913) running Biacore T200 Evaluation Software V2.0.1 (Uppsala, Sweden). All experiments were run at 25° C. with HBS-P+ running buffer (pH 7.4) (GE Healthcare, Little Chalfont, UK).
(§2) Due to the limit in the number of available flow cells for analysis (three Fc per analysis, Fc2, Fc3 and Fc4, with Fc1 always being used as blank reference for non-specific subtraction), receptor binding was assessed in two separate overlapping runs using either: hTNFR1 (Fc2), hTNFR2 (Fc3) and mTNFR1 (Fc4), or; hTNFR1 (Fc2), […] and mTNFR2 (Fc4). Receptors were diluted in running buffer to a concentration of ˜4 μg/mL and at the start of each cycle loaded onto Fc2, Fc3 and Fc4 of a Protein A chip (GE Healthcare, Little Chalfont, UK) at a flow rate of 10 μL/min to give an RU of 40-100. The surface was then allowed to stabilise. Single cycle kinetic data was obtained at a flow rate of 45 μL/min. […] The association phase for the three injections of increasing concentrations of TNF was monitored for 240 seconds and a single dissociation phase was measured for 2700 seconds following the last injection of TNF. Regeneration of the Protein A surface was conducted using 10 mM glycine-HCl pH 1.5. The signal from the reference channel Fc1 (no receptor) was subtracted from that of Fc2, Fc3 and Fc4 to correct for differences in non-specific binding to a reference surface.

The target of experiment [2] is T2, Fc tagged mouse TNFR1 (Sino Biological) (mouse, UniProt P25118 22-212, limits assumed).
T2 construct: Bought reagent; also called mTNFR1; mTNFR1-Fc; not shown: Fc tag of the bought protein
T2 sequence (looked up): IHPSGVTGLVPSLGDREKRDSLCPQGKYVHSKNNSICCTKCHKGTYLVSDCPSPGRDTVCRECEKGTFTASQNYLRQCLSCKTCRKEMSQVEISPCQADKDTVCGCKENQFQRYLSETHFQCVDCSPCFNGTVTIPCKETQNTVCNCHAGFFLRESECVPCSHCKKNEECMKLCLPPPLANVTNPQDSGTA
The experiment is described as above. How it is done: as §1, §2

Experiment [3] deals with T1, Fc tagged human TNFR1 (Sino Biological). The experiment is described as follows: SPR, Biacore T200 multi cycle kinetics, receptor-Fc captured on Protein A chip, TNF 1.25-40 nM, 1:1 model. How it is done:
(§3) Multi cycle kinetics analysis of binding to hTNFR1, hTNFR2, mTNFR1 and mTNFR2 was performed on the 10 lead variants using a Biacore T200 (serial no. 1909913) instrument running Biacore T200 Evaluation Software V3.0.1 (Uppsala, Sweden) to characterise further the binding to these receptors.
(§4) As with the single cycle kinetics, receptor binding was assessed in two separate experiments. In the first set of experiments binding to hTNFR1 (Fc2), hTNFR2 (Fc3) and mTNFR1 (Fc4) was assessed. In the second set of experiments the extent of mTNF2 (Fc4) binding was assessed using hTNFR1 (Fc2) and hTNFR2 (Fc3) as controls. All receptors were diluted in running buffer to a concentration of ˜4 μg/mL and at the start of each cycle loaded onto Fc2, Fc3 and Fc4 of a Protein A CM5 chip and captured at a flow rate of 10 μL/min to give an RU of ˜40-100. The surface was then allowed to stabilise. All kinetic data was obtained using a flow rate of 75 μl/min to minimise any potential mass transfer effects. […] The association phase of TNF was monitored for 280 seconds and the dissociation phase was measured for 2100 seconds. […] Regeneration of the Protein A surface was conducted using two injections of 10 mM glycine-HCL pH 1.5 at the end of each cycle. The signal from the reference channel Fc1 was subtracted from that of Fc2, Fc3 and Fc4 to correct for differences in non-specific binding to a reference surface, and a global Rmax parameter was used in the 1-to-1 binding model.
In general terms: Surface plasmon resonance follows binding to a sensor surface in real time, without labels.

Experiment [4] concerns the target T2, Fc tagged mouse TNFR1 (Sino Biological). The experiment is described as above. How it is done:
as §3, §4

Experiment [5] has as its target T3, Fc tagged human TNFR2 (Sino Biological) (human, UniProt P20333 23-257).
T3 construct: Bought reagent; also called hTNFR2; hTNFR2-Fc; not shown: Fc tag of the bought protein
T3 sequence (looked up): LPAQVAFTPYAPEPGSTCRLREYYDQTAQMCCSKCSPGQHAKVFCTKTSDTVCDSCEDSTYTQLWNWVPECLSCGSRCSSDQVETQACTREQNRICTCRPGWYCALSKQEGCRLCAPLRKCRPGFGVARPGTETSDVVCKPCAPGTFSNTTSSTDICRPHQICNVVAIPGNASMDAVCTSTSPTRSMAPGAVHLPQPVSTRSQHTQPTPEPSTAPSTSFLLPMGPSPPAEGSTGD
In words: SPR, Biacore T200 multi cycle kinetics, 1:1 model; ** = a residual amount of binding is observed but 1 to 1 model is a poor fit. How it is done: as §3
as §4, with “The signal from the reference channel Fc1 was subtracted from that of Fc2, Fc3 and Fc4 to correct for differences in non-specific binding to a reference surface, and a global Rmax parameter was used in the 1-to-1 binding model.” left out

Experiment [6] has as its target T4, Fc tagged mouse TNFR2 (Sino Biological) (mouse, UniProt P25119 23-258).
T4 construct: Bought reagent; also called mTNFR2; mTNF2; not shown: Fc tag of the bought protein
T4 sequence (looked up): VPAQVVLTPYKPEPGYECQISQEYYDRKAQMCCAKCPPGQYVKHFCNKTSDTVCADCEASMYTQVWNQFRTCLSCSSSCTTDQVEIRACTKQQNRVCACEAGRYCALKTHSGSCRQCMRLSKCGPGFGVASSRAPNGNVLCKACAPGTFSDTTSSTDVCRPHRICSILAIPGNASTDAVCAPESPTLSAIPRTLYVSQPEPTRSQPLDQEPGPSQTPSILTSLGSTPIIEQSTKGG
The experiment is described as follows: SPR (Biacore T200) single cycle kinetics, Fc-tagged receptor captured on Protein A chip, TNF protein as analyte at 1.67-15 nM. How it is done: as §1, §2
(§5) Controls were used to ensure the integrity of the receptors during the Biacore run.

The target in experiment [7] is T1, Fc tagged human TNFR1 (Sino Biological). In words: SPR, Biacore single cycle kinetics, stability study, before freezing (t=0). How it is done:
as §2
(§6) At day zero (prior to freezing) and following thawing on ice after 3 months and 1 year the following assays were performed: [0341] SDS-PAGE [0342] OD280 nm [0343] Single cycle Biacore for binding to hTNFR1, hTNFR2 and mTNFR1

Experiment [8] deals with T2, Fc tagged mouse TNFR1 (Sino Biological). Described as above. The protocol: as §2, §6
The target in experiment [9] is T1, Fc tagged human TNFR1 (Sino Biological). In words: SPR, Biacore single cycle kinetics, stability study, after 1 year at -20° C. How it is done: as §2, §6
In experiment [10] the target is T2, Fc tagged mouse TNFR1 (Sino Biological). Described as above. How it is done: as §2, §6
Experiment [11] concerns the target T1, Fc tagged human TNFR1 (Sino Biological). The experiment is described as follows: SPR, Biacore single cycle kinetics, stability study, after 1 year at -80° C. How it is done:
as §2, §6

Experiment [12] has as its target T2, Fc tagged mouse TNFR1 (Sino Biological). The experiment is described as above. The protocol:
as §2, §6

For experiment [13], the target named is T3, Fc tagged human TNFR2 (Sino Biological). In words: SPR (Biacore T200) single cycle kinetics, Fc-tagged receptor captured on Protein A chip, TNF protein as analyte at 1.67-15 nM. How it is done: as §1, §2, §5
For experiment [14] the target is unchanged. The experiment is described as follows: phage binding test on Fc tagged receptor.
Experiment [15] deals with T4, Fc tagged mouse TNFR2 (Sino Biological). In words: phage binding test on Fc tagged receptor.

B1: TNF mutein C8 (ligand)
chain: VRSSSRTPSDKPVAHVVANPQAEGQLQWLNRRANALLANGVELRDNQLVVPSEGLYLIYSQVLFKGQGCPSTHVLLTHTISRISQTHDGKVNLLSAIKSPCQRETPEGAEAKPWYEPIYLGGVFQLEKGDRLSAEINRPDYLDFAESGQVYFGIIAL
notes: Human TNF mutein, SQTHDG at positions 84-89; not shown: C-terminal FLAG tag and His6 tag from vector pANT65
B1: the Kd (in general, the equilibrium constant for the complex coming apart) in experiment [1] was determined as 0.188 nM; in [2] it was 0.363 nM; in [3], 0.261 nM; in experiment [4], 0.112 nM; in experiment [5], 4.13 nM. The binding result in experiment [6] is given as “no binding (tested: 15 nM)”.

B2: TNF variant C9 (ligand)
chain: B1 chain with L29I, R31G, S84A, Q85V, H87Y, D88Q, G89T, F144D, E146D
notes: Human TNF variant from Library 2, AVTYQT at positions 84-89; not shown: C-terminal FLAG tag and His6 tag from vector pANT65
In the case of B2, the equilibrium dissociation constant (Kd) came to 0.0248 nM in [1]; 0.607 nM in experiment [2]; 0.0717 nM in experiment [3]; 1.13 nM in [4]; 289 nM in [5]. Besides, in experiment [6], the binding result is “no binding (tested: 15 nM)”.

B3: TNF mutein G4 (ligand)
chain: B1 chain with Q85S, H87Y, D88N, G89P
notes: Human TNF mutein, SSTYNP at positions 84-89; also called mutTNF G4; mutTNF; not shown: C-terminal FLAG tag and His6 tag from vector pANT65
On to B3, for which the Kd in experiment [7] came out at 0.0173 nM; in experiment [8], 0.07 nM; in [9], 0.0331 nM; in experiment [10], 0.0692 nM; in [11] it was 0.0399 nM; in [12], 0.0458 nM. Further, the Kd was 0.0171 nM in experiment [1], 0.0407 nM in experiment [2], 0.00872 nM in [3] and 0.14 nM in experiment [4]. Besides, the binding result in [13] and in experiment [6] was “no binding (tested: 15 nM)” each time.

B4: TNF mutein F7 (ligand)
chain: B1 chain with R2H, Q85E, H87V, D88V, A134V
notes: Human TNF mutein, SETVVG at positions 84-89; not shown: C-terminal FLAG tag and His6 tag from vector pANT65
B4: the Kd in experiment [7] is 0.022 nM; in experiment [8] it was 0.116 nM; in [9], 0.0262 nM; in [10], 0.111 nM; in experiment [11], 0.0353 nM; in [12], 0.165 nM. Besides, the Kd came to 0.0424 nM in experiment [1], 0.0827 nM in experiment [2], 0.0465 nM in experiment [3] and 0.208 nM in experiment [4]. Moreover, the binding result in experiment [13] and in experiment [6] was “no binding (tested: 15 nM)” each time.

B5: phage displaying mTNF (gene III fusion, pANT65) (other, mouse, UniProt P06804 80-235, looked up)
chain: LRSSSQNSSDKPVAHVVANHQVEEQLEWLSQRANALLANGMDLKDNQLVVPADGLYLVYSQVLFKGQGCPDYVLLTHTVSRFAISYQEKVNLLSAVKSPCPKDTPEGAELKPWYEPIYLGGVFQLEKGDQLSAEVNLPKYLDFAESGQVYFGVIAL
notes: also called mTNF (phage); not shown: FLAG tag, His6 tag and phage gene III protein of pANT65
Turning to B5, the binding result in experiment [14] and in experiment [15] was “binds” each time.
